Source: the supplement of paper PMC7877785
± gives the uncertainty stated by the source.

Experiment: self-splicing fitness, log relative to wild type (ln ratio); higher = more splicing; Tetrahymena group I intron in knt gene, E. coli kanamycin selection, DiMSum; sequences stand for … in CUCUCU…GGAGGGAAAAGUUAUCAGGCAUGCACCUGGUAGCUAGUCUUUAAACCAAUAGAUUGCAUCGGUUUAAAAGGCAAGACCGUCAAAUUGCGGGAAAGGGGUCAACAGCCGUUCAGUACCAAGUCUCAGGGGAAACUUUGAGAUGGCCUUGCAAAGGGUAUGGUAAUAAGCUGACGGACAUGGUCCUAACCACGCAGCCAAGUCCUAAGUCAACAGAUCUUCUGUUGAUAUGGAUGCAGUUCACAGACUAAAUGUCGGUCGGGGAAGAUGUAUUCUUCUCAUAAGAUAUAGUCGGACCUCUCCUUAAUGGGAGCUAGCGGAUGAAGUGAUGCAACACUGGAGCCGCUGGGAACUAAUUUGUAUGCGAAAGUAUAUUGAUUAGUUUUGGAGUACUCGUGGUCG
How it was run: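 DiMSum derived fitness as the error-weighted combination of fold changes across replicates, kanamycin versus no kanamycin, normalised to wild type. E. coli BL21(DE3) held the library, which randomised all eight P1ex-region intron nucleotides within the knt kanamycin-resistance gene on pET-22b(+). Six replicate transformations grew overnight at 37°C or 30°C on LB agar with or without 25 μg/mL kanamycin, also containing 100 μg/mL carbenicillin, 50 μM IPTG and 0.2% rhamnose, and pooled colonies were amplicon-sequenced on an Illumina HiSeq 2500.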

Sequence | self-splicing fitness (ln) (30 °C) | self-splicing fitness (ln) (37 °C)
GACCAGCAAUAUUACGGUAG | -0.241 ± 0.066 | 0.668 ± 0.085
UGACAGCAAUAUUACGGAUU | -2.54 ± 0.094 | -2.29 ± 0.13
UCGAAGCAAUAUUACGAAGU | -4.55 ± 0.32 | -1.43 ± 0.19
UACGAGCAAUAUUACGCAUA | -3.17 ± 0.19 | -0.975 ± 0.13
CCAGAGCAAUAUUACGUAUA |  | -2.35 ± 0.29
GUUUAGCAAUAUUACGCAGG | -1.36 ± 0.2 | -2.04 ± 0.34
UGGGAGCAAUAUUACGUUGU | -3.01 ± 0.23 | -2.2 ± 0.34
UCCGAGCAAUAUUACGAAGG | -2.07 ± 0.11 | -1.43 ± 0.13
CAGCAGCAAUAUUACGUGCG | -1 ± 0.05 | -0.378 ± 0.066
CAAGAGCAAUAUUACGCGAA | -3.05 ± 0.26 | -2.98 ± 0.4
AUAUAGCAAUAUUACGGAGG | -3.24 ± 0.45 | 
AUUUAGCAAUAUUACGGGAU | -1.42 ± 0.11 | -0.217 ± 0.14
AGGGAGCAAUAUUACGUGCC | -2.79 ± 0.46 | 
UCACAGCAAUAUUACGAUAA | -1.65 ± 0.066 | -0.733 ± 0.074
GACUAGCAAUAUUACGCCGA | -0.898 ± 0.21 | -0.421 ± 0.2
GUGUAGCAAUAUUACGAUUG | -4.18 ± 0.3 | -2.18 ± 0.2
UGCGAGCAAUAUUACGGUUA | -0.797 ± 0.11 | -0.443 ± 0.12
CUCCAGCAAUAUUACGGUCA | -2.86 ± 0.13 | -1.82 ± 0.13
AAUGAGCAAUAUUACGAAGC | -3.08 ± 0.35 | -1.89 ± 0.43
UGUGAGCAAUAUUACGUCAC | -3.91 ± 0.47 | 
CGGCAGCAAUAUUACGAGCA | -2.99 ± 0.24 | -0.81 ± 0.13

Sequence | self-splicing fitness (ln) (30 °C) | self-splicing fitness (ln) (37 °C)
UAAAAGCAAUAUUACGUUGC | -3.72 ± 0.27 | -3.17 ± 0.4
AGGUAGCAAUAUUACGAUCA | -0.205 ± 0.014 | -0.121 ± 0.033
AGCAAGCAAUAUUACGAAUA | -2.74 ± 0.26 | -0.872 ± 0.16
UUUUAGCAAUAUUACGGGAU | -3.93 ± 0.32 | -1.48 ± 0.17
ACAUAGCAAUAUUACGGGCG | -1.28 ± 0.09 | -1 ± 0.096
GGCUAGCAAUAUUACGGCAC | 0.203 ± 0.13 | -0.036 ± 0.14
UGAGAGCAAUAUUACGAUGG | -3.59 ± 0.23 | -2.72 ± 0.2
UCGGAGCAAUAUUACGCCGA | -3.12 ± 0.32 | 
AUCAAGCAAUAUUACGAUUC | -2.14 ± 0.12 | -1.25 ± 0.16
UUGUAGCAAUAUUACGCGUC | -3.51 ± 0.42 | -0.917 ± 0.26
ACUUAGCAAUAUUACGCUUC | -2.32 ± 0.19 | -2.18 ± 0.45
AUGCAGCAAUAUUACGCAUU | -3.49 ± 0.11 | -3.37 ± 0.19
CCGGAGCAAUAUUACGUCCG | -3.03 ± 0.37 | 
UCGGAGCAAUAUUACGUUAC | -1.87 ± 0.3 | 
CGGGAGCAAUAUUACGGCUC | -3 ± 0.3 | -2.12 ± 0.42
GGUUAGCAAUAUUACGUCCU | -1.2 ± 0.12 | -0.367 ± 0.12
CGAUAGCAAUAUUACGCGAG | -3.16 ± 0.26 | -2.42 ± 0.2
CUUGAGCAAUAUUACGAAGG | -1.97 ± 0.2 | 
CUCAAGCAAUAUUACGACAU | -3.206 ± 0.018 | -1.9 ± 0.034
UUUUAGCAAUAUUACGCGGA | -2 ± 0.17 | -1.44 ± 0.17
AGCGAGCAAUAUUACGUUGG | -2.04 ± 0.12 | -3.5 ± 0.46

Sequence | self-splicing fitness (ln) (30 °C) | self-splicing fitness (ln) (37 °C)
AAUCAGCAAUAUUACGAACG | -0.399 ± 0.088 | -0.368 ± 0.1
ACAAAGCAAUAUUACGGGAC | -3.25 ± 0.17 | -1.96 ± 0.14
UUCUAGCAAUAUUACGGCAG | 0.185 ± 0.42 | -0.821 ± 0.39
UUUGAGCAAUAUUACGGUGA | -2.07 ± 0.15 | -2.46 ± 0.18
GAGUAGCAAUAUUACGGGUA | -2.78 ± 0.35 | -2.54 ± 0.26
UAUAAGCAAUAUUACGCGAG | -1.39 ± 0.12 | -1.02 ± 0.11
UAGAAGCAAUAUUACGUCUG | -1.12 ± 0.064 | -0.959 ± 0.076
GCAAAGCAAUAUUACGUUAA | -1.83 ± 0.14 | -1.45 ± 0.14
GCUAAGCAAUAUUACGCGUU | -1.23 ± 0.083 | -0.649 ± 0.1
CGUGAGCAAUAUUACGUGGG | -2.91 ± 0.14 | -1.99 ± 0.11
CGGCAGCAAUAUUACGAAUU | -3 ± 0.23 | -2.6 ± 0.33
CUCAAGCAAUAUUACGAAGA | -3.8 ± 0.25 | -2.55 ± 0.2
UGUCAGCAAUAUUACGAAAG | -1.72 ± 0.14 | -1.21 ± 0.17
UGGAAGCAAUAUUACGGCUG | -0.475 ± 0.099 | 1.02 ± 0.12
AGCUAGCAAUAUUACGAAUU | -1.74 ± 0.11 | -1.14 ± 0.13
UGGAAGCAAUAUUACGGAGU | -3.51 ± 0.22 | -2.75 ± 0.22
CACCAGCAAUAUUACGUAGU | -3.23 ± 0.075 | -1.53 ± 0.079
CCAUAGCAAUAUUACGAGUA | -3.41 ± 0.32 | -2.06 ± 0.19
UACUAGCAAUAUUACGACCA | 0.122 ± 0.088 | -0.816 ± 0.1
CGAAAGCAAUAUUACGUCGA | -3.02 ± 0.17 | -1.51 ± 0.14
